Results as given in patent publication US20130209454A1.

How the values were obtained:
Experiment in all cases: cell-based or functional assay
[1] = target: Env of HIV-1 strain 1012_11_TC21_3257 (HIV-1)
[2] = target: Env of HIV-1 strain 6244_13_B5_4576 (HIV-1)
[3] = target: Env of HIV-1 strain 6535.3 (HIV-1)
[4] = target: Env of HIV-1 strain 6545.v4.c1 (HIV-1)
[5] = target: Env of HIV-1 strain BJOX025000.01.1 (HIV-1)
[6] = target: Env of HIV-1 strain Ce1172_H1 (HIV-1)
[7] = target: Env of HIV-1 strain HIV-16845-2.22 (HIV-1)
[8] = target: Env of HIV-1 strain PVO.4 (HIV-1)
[9] = target: Env of HIV-1 strain Q461.e2 (HIV-1)
[10] = target: Env of HIV-1 strain Q842.d12 (HIV-1)
[11] = target: Env of HIV-1 strain R1166.c01 (HIV-1)
[12] = target: Env of HIV-1 strain SC422661.8 (HIV-1)
[13] = target: Env of HIV-1 strain ZM135M.PL10a (HIV-1)
[14] = target: HIV-1 Env of strain 1006_11_C3_1601 (HIV-1)
[15] = target: HIV-1 Env of strain 191821_E6_1 (HIV-1)
[16] = target: HIV-1 Env of strain 3103.v3.c10 (HIV-1)
[17] = target: HIV-1 Env of strain 620345.c01 (HIV-1)
[18] = target: HIV-1 Env of strain A07412M1.vrc12 (HIV-1)
[19] = target: HIV-1 Env of strain CAP210.2.00.E8 (HIV-1)
[20] = target: HIV-1 Env of strain CAP45.2.00.G3 (HIV-1)
[21] = target: HIV-1 Env of strain CNE30 (HIV-1)
[22] = target: HIV-1 Env of strain CNE5 (HIV-1)
[23] = target: HIV-1 Env of strain Ce2060_G9 (HIV-1)
[24] = target: HIV-1 Env of strain T257-31 (HIV-1)
[25] = target: HIV-1 Env of strain WEAU_d15_410_787 (HIV-1)
[26] = target: HIV-1 Env of strain X2131_C1_B5 (HIV-1)
[27] = target: HIV-1 Env of strain ZM233M.PB6 (HIV-1)
[28] = target: HIV-1 Env of strain ZM249M.PL1 (HIV-1)

Chain of NIH45-46 (antibody) (VH): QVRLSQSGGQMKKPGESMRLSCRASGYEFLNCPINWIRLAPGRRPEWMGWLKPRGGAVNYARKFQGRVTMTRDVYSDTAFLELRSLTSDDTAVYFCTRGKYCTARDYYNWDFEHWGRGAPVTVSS
Chain of NIH45-46 (antibody) (V domain): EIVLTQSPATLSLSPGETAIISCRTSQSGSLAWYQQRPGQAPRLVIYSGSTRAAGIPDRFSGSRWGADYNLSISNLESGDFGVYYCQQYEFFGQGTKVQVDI

Substance NIH45-46 (antibody) has an IC80 [1] of 0.04 µg/mL, an IC80 [2] of 0.26 µg/mL and an IC80 [3] of 0.54 µg/mL. The IC80 [4] was over 50 µg/mL, the IC80 [5] was 10 µg/mL and the IC80 [6] was over 50 µg/mL. For the same substance, the IC80 [7] was 22.6 µg/mL, the IC80 [8] was 0.41 µg/mL and the IC80 [9] was 0.291 µg/mL. The IC80 [10] was 0.073 µg/mL, the IC80 [11] was 1.21 µg/mL and the IC80 [12] was 0.13 µg/mL. It also gave an IC80 [13] of 2.79 µg/mL, an IC50, pseudovirus neutralization [14] of 0.027 µg/mL and an IC50, pseudovirus neutralization [15] of 0.09 µg/mL. For the same substance, the IC50, pseudovirus neutralization [16] was 1.77 µg/mL, the IC50, pseudovirus neutralization [17] was over 50 µg/mL and the IC50, pseudovirus neutralization [18] was 0.03 µg/mL. The IC50, pseudovirus neutralization [19] was over 50 µg/mL, the IC50, pseudovirus neutralization [20] was over 50 µg/mL and the IC50, pseudovirus neutralization [21] was 0.309 µg/mL. For the same substance, the IC50, pseudovirus neutralization [22] was 0.09 µg/mL, the IC50, pseudovirus neutralization [23] was 0.058 µg/mL and the IC50, pseudovirus neutralization [24] was 0.49 µg/mL. It also gave an IC50, pseudovirus neutralization [25] of 0.005 µg/mL, an IC50, pseudovirus neutralization [26] of 0.23 µg/mL and an IC50, pseudovirus neutralization [27] of 2.5 µg/mL. The IC50, pseudovirus neutralization [28] was 0.017 µg/mL.
